Experimental findings from patent US20220325000A1 (SUZHOU ALPHAMAB, published 2022) are described below.

As a reminder, the EC50 is the concentration that produces a half-maximal response. A lower EC50 goes with higher potency in that assay. As a reminder, the Kd is the free concentration of one partner at which half of the binding sites on the other are occupied at equilibrium, for simple one-to-one binding. A higher Kd goes with a looser complex. A word on the IC50: it is the concentration that inhibits the measured activity by half. Low readings indicate higher potency, high ones lower potency.

For assay [1], the target named is T1, hTFPI antigen (human).
T1 construct: Self-made hTFPI used in the hybridoma screens; It may be the same protein as hTFPI161; also called human TFPI; hTFPD
Briefly: ELISA, subclone supernatant, hTFPI, OD450.

For assay [2], the target named is T1, hTFPI antigen. Briefly: competitive ELISA, FXa coated (competitor), supernatant diluted 10x. As for the experimental part: (§1) Coat with 2μg/mL FXA Protease (Neb, batch No. 0941404), after blocking with BSA, the same diluted supernatant of TFPI hybridoma cells and 50 ng/mL hTFPD (batch No. TE20140825, self-made) were added for complete incubation, followed by 1:1500 diluted mouse THETM His Tag Antibody [HRP] mAb (GenScript, batch No. 14C000744), after development by TMB, 1 M H2SO4 stop solution was added to stop developing and the value was read on the microplate reader. Using 650 nm as the reference wavelength, the OD values were read at 450 nm and 650 nm. […] The lower the OD value, the better the inhibition of the anti-TFPI antibody.
(§2) Afterwards, the supernatant of 31 7G6 subcloned cells was performed with the inhibition experiment at different dilution ratios, and the experimental method was the same as 1.2.
(In general: ELISA stands for enzyme-linked immunosorbent assay.)

Assay [3] addresses T1, hTFPI antigen. Briefly: competitive ELISA, FXa coated (competitor), supernatant diluted 100x. As for the experimental part: as §1, §2
The target of assay [4] is T2, hTFPI161-Chis (human, UniProt P10646 29-189, limits assumed).
T2 construct: also called human TFPI; not shown: C-terminal His tag ('Chis')
T2 sequence (looked up): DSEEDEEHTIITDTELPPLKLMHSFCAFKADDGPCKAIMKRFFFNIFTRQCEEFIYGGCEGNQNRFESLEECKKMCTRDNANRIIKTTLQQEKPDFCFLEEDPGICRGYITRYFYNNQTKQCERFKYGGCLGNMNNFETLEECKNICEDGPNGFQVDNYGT
Briefly: ELISA, hTFPI161 coated, anti-human IgG4-HRP, four-parameter fit. How it is done: hTFPI161 protein was coated on the plate at 0.5 μg/well overnight at 4° C. After washing, the gradient dilution series of h7G6 antibody protein obtained in the above example was added, and incubated at 25° C±2° C. for 2 h. After washing, 1:2000 diluted Mouse Anti-Human IgG4 pFc′ antibody [HP 6023] (HRP) was added at 100 μL/well, and incubated at 25° C.±2° C. for 2 h. After washing, the development solution was added, and the absorbance was read at the wavelength of 450/650 nm. The software SotfMax Pro v5.4 was applied for data processing and mapping analysis, using four-parameter fitting, the binding curve of h7G6 antibody to hTFPI161 and EC50 value were obtained, which reflects the affinity of the antibody for hTFPI161.

The target in assay [5] is T2, hTFPI161-Chis. Briefly: BLI, antibody on Protein A biosensor, hTFPI161-Chis 1.875-30 nM, 1:1 model; batch 180727DS. As for the experimental part: (§3) In this experiment, the affinity of h7G6 for human TFPI was detected based on Bio-Layer Interferometry (BLI) technology. K2 instrument of Fortibio was used. Firstly, KN057 was diluted to […] and immobilized on Protein A biosensor (model 18-5010), then hTFPI161-Chis was diluted to 30 nM, 15 nM, 7.5 nM, 3.75 nM and 1.875 nm to combine with h7G6, respectively, and the binding signals with different intensities could be detected. The results were fitted using 1:1 model to calculate the equilibrium constant (KD) of the sample.

In assay [6] the target is T2, hTFPI161-Chis. Briefly: BLI, antibody on Protein A biosensor, hTFPI161-Chis 1.875-30 nM, 1:1 model; batch 180820DS. As for the experimental part:
as §3
Background: Biolayer interferometry detects binding as a change in optical thickness at a sensor tip.

The target of assay [7] is T2, hTFPI161-Chis. Briefly: competitive ELISA, FXa coated (competitor), 50 ng/mL hTFPI161, anti-His-HRP, four-parameter fit. How it is done:
FXa Protease was coated on the plate at 0.2 μg/well overnight at 4° C., after blocking with BSA, the gradient dilution series of hu7G6 antibody protein obtained from the above example was added at 100 uL/well (50 ng/mL hTFPI161 was contained in the dilution), and the reaction was carried out at room temperature for 1 hour. After washing, 1:1500 diluted Mouse THETM His Tag Antibody [HRP] mAb was added, and the reaction was carried out at room temperature for 1 hour. After washing, the development solution was added, and the absorbance was read at the wavelength of 450/650 nm.
The software SotfMax Pro v5.4 was applied for data processing and mapping analysis, using four-parameter fitting, the inhibition curve of h7G6 antibody for FXa-TFPI and EC50 value were obtained. The results were shown in FIG. 3, in which the ordinate was OD450 and the abscissa is the concentration of h7G6 antibody protein (ng/mL); and Hu7G62-v2 antibody protein was effective in inhibiting the interaction between FXA and TFPI.

For assay [8], the target named is T2, hTFPI161-Chis. Briefly: BLI, antibody on Protein A biosensor, hTFPI161-Chis 1.875-30 nM, 1:1 model; mean of three batches; average of three batches. How it is done: as §3

B1: TFPI-7G6-1C12 (antibody, V domains shown)
VH: QVQLQQSGAELARPGASVKLSCKASGYSFTSYGISWVKQRTGQGLEWIGEIYPRSTNTYYNEKFMGKATLTADKSSSTAFMELRSLTSEDSAVYFCARESFYGDYGAMDFWGQGASVTVSS
VL: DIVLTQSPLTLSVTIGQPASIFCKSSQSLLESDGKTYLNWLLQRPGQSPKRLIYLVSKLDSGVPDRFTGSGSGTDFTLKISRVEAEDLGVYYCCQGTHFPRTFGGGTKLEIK
notes: Subclone supernatant
Regarding B1, the OD in the assay with hTFPI antigen [1] was determined as 1.24. Further, the Inhibition % stood at 95.2% with hTFPI antigen [2] and 57.9% in the assay with hTFPI antigen [3].

B2: TFPI-7G6-2G8 (antibody, V domains shown)
VH: QVQLQQSGAELARPGASVKLSCKASGYSFTSYGISWVKQRTGQGLEWIGEIYPRSTNTYYNEKFMGKATLTADKSSSTAFMELRSLTSEDSAVYFCARESFYGDYGAMDFWGQGASVTVSS
VL: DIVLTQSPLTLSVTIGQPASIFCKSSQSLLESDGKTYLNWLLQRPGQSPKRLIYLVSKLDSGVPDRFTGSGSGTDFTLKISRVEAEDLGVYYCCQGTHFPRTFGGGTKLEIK
notes: Subclone supernatant
B2 displayed an OD with hTFPI antigen [1] of 1.27. For the same molecule, the Inhibition % stood at 95.9% with hTFPI antigen [2] and 62.7% in the assay with hTFPI antigen [3].

B3: TFPI-7G6-5A10 (antibody, V domains shown)
VH: QVQLQQSGAELARPGASVKLSCKASGYSFTSYGISWVKQRTGQGLEWIGEIYPRSTNTYYNEKFMGKATLTADKSSSTAFMELRSLTSEDSAVYFCARESFYGDYGAMDFWGQGASVTVSS
VL: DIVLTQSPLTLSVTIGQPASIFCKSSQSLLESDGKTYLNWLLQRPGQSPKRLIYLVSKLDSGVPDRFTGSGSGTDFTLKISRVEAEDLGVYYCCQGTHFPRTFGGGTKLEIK
notes: Subclone supernatant
Molecule B3 showed an OD with hTFPI antigen [1] of 1.25. In addition, the Inhibition % was determined as 95.9% in the assay with hTFPI antigen [2] and 62.1% with hTFPI antigen [3].

B4: TFPI-7G6-5F11 (antibody, V domains shown)
VH: QVQLQQSGAELARPGASVKLSCKASGYSFTSYGISWVKQRTGQGLEWIGEIYPRSTNTYYNEKFMGKATLTADKSSSTAFMELRSLTSEDSAVYFCARESFYGDYGAMDFWGQGASVTVSS
VL: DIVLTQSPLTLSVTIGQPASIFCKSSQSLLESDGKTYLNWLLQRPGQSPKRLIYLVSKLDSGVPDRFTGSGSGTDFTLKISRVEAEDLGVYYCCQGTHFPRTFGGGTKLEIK
notes: Subclone supernatant
B4 had an OD with hTFPI antigen [1] of 1.35. Moreover, the Inhibition % amounted to 95.1% with hTFPI antigen [2] and 55% with hTFPI antigen [3].

B5: Hu7G62-v2 (antibody, human IgG4 S228P, kappa, V domains shown)
VH: QVQLVQSGAEVKKPGASVKVSCKASGYSFTSYGISWVKQAPGQGLEWIGEIYPRSTNTYYNEKFMGKATLTADKSSSTAYMELSSLRSEDTAVYYCARESFYGDYGAMDFWGQGTLVTVSS
VL: DIVMTQSPLSLPVTPGEPASISCKSSQSLLESDGKTYLNWYLQKPGQSPQLLIYLVSKLDSGVPDRFSGSGSGTDFTLKISRVEAEDVGVYYCSQGTHFPRTFGQGTKVEIKR
notes: also called hu7G6-2v2-G4ws; h7G6 antibody
B5 registered a concentration giving a half-maximal response (EC50) with hTFPI161-Chis [4] of 0.0419 µg/mL. Besides, the equilibrium dissociation constant (Kd) with hTFPI161-Chis [5] amounted to 1.32 nM; in the assay with hTFPI161-Chis [6] it was 1.47 nM; with hTFPI161-Chis [8] it was 1.37 nM. Further, the concentration for half-maximal inhibition (IC50) with hTFPI161-Chis [7] was 0.222 µg/mL.
